Test system: Escherichia coli TOP10
Assay: shrunken log2 fold change of peptide-encoding DNA abundance (4.5 h post-induction vs induction); higher = less antimicrobial activity (less host growth inhibition)
Conditions: time post-induction: 4.5 h; library: site-saturation at positions 5, 18, 19, 20
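Further: peptides expressed intracellularly from a pBAD plasmid library in pooled LB shake-flask culture, induced with 0.3% L-arabinose, DNA abundance read by NGS, three biological replicates, DESeq2 with apeglm shrinkage.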

In the case of RRIRPRPPRLPRPRPRPYRMPRP, the “shrunken log2 fold change” value is reported as 0.0542.

With RRIRKRPPRLPRPRPRPDLKPRP the “shrunken log2 fold change” value was 0.131.

With RRIRWRPPRLPRPRPRPTWHPRP the “shrunken log2 fold change” value was 0.0819.

With RRIRHRPPRLPRPRPRPANPPRP the “shrunken log2 fold change” value was 0.0212.

With RRIRSRPPRLPRPRPRPGQVPRP the “shrunken log2 fold change” value was -0.0247.

For RRIRERPPRLPRPRPRPKIIPRP, the “shrunken log2 fold change” value was 0.357.

In the case of RRIRQRPPRLPRPRPRPHIWPRP, the “shrunken log2 fold change” value is reported as -0.333.

With RRIRCRPPRLPRPRPRPHPHPRP the “shrunken log2 fold change” value was -0.0639.

With RRIRFRPPRLPRPRPRPCWPPRP the “shrunken log2 fold change” value was 0.0203.

RRIRKRPPRLPRPRPRPNSIPRP was tested, and the “shrunken log2 fold change” value was -0.0805.

In the case of RRIRQRPPRLPRPRPRPVSNPRP, the “shrunken log2 fold change” value is reported as -0.0478.

In the case of RRIRERPPRLPRPRPRPCLEPRP, the “shrunken log2 fold change” value is reported as -0.116.

For RRIRNRPPRLPRPRPRPWQDPRP, the “shrunken log2 fold change” value was -0.112.

In the case of RRIRWRPPRLPRPRPRPHQCPRP, the “shrunken log2 fold change” value is reported as -0.112.

RRIRGRPPRLPRPRPRPFEIPRP was tested, and the “shrunken log2 fold change” value was -0.017.

With RRIRFRPPRLPRPRPRPPALPRP the “shrunken log2 fold change” value was 0.509.

For RRIRTRPPRLPRPRPRPAGHPRP, the “shrunken log2 fold change” value was -0.0189.

For RRIRQRPPRLPRPRPRPCCHPRP, the “shrunken log2 fold change” value was -0.197.

In the case of RRIRKRPPRLPRPRPRPQGRPRP, the “shrunken log2 fold change” value is reported as -0.078.

With RRIRPRPPRLPRPRPRPNYLPRP the “shrunken log2 fold change” value was -0.0996.

RRIRVRPPRLPRPRPRPEGIPRP was tested, and the “shrunken log2 fold change” value was -0.0615.

RRIRARPPRLPRPRPRPQWPPRP was tested, and the “shrunken log2 fold change” value was 0.366.

With RRIRTRPPRLPRPRPRPPLPPRP the “shrunken log2 fold change” value was 0.33.

RRIRCRPPRLPRPRPRPLSRPRP was tested, and the “shrunken log2 fold change” value was -0.143.

With RRIRFRPPRLPRPRPRPMNSPRP the “shrunken log2 fold change” value was -0.325.

With RRIRERPPRLPRPRPRPGQPPRP the “shrunken log2 fold change” value was 0.0236.

With RRIRPRPPRLPRPRPRPITCPRP the “shrunken log2 fold change” value was 0.102.

RRIRYRPPRLPRPRPRPRVGPRP was tested, and the “shrunken log2 fold change” value was 0.161.

With RRIRMRPPRLPRPRPRPNDNPRP the “shrunken log2 fold change” value was 0.504.

In the case of RRIRCRPPRLPRPRPRPLAAPRP, the “shrunken log2 fold change” value is reported as 0.351.

RRIRNRPPRLPRPRPRPSDLPRP was tested, and the “shrunken log2 fold change” value was -0.256.

With RRIRHRPPRLPRPRPRPKGIPRP the “shrunken log2 fold change” value was -0.092.

RRIRQRPPRLPRPRPRPSWMPRP was tested, and the “shrunken log2 fold change” value was -0.0569.

In the case of RRIRVRPPRLPRPRPRPKMFPRP, the “shrunken log2 fold change” value is reported as -0.056.

With RRIRGRPPRLPRPRPRPWCNPRP the “shrunken log2 fold change” value was -0.276.

With RRIRPRPPRLPRPRPRPVKRPRP the “shrunken log2 fold change” value was -0.171.

RRIRIRPPRLPRPRPRPKDHPRP was tested, and the “shrunken log2 fold change” value was -0.222.

With RRIRDRPPRLPRPRPRPILKPRP the “shrunken log2 fold change” value was 0.0239.

In the case of RRIRDRPPRLPRPRPRPKPFPRP, the “shrunken log2 fold change” value is reported as 0.013.

With RRIRMRPPRLPRPRPRPGEHPRP the “shrunken log2 fold change” value was 0.987.

In the case of RRIRARPPRLPRPRPRPPPKPRP, the “shrunken log2 fold change” value is reported as 1.29.

RRIRERPPRLPRPRPRPVHIPRP was tested, and the “shrunken log2 fold change” value was -0.202.

For RRIRERPPRLPRPRPRPPISPRP, the “shrunken log2 fold change” value was 0.0892.

RRIRKRPPRLPRPRPRPYHEPRP was tested, and the “shrunken log2 fold change” value was -0.112.

With RRIRQRPPRLPRPRPRPITCPRP the “shrunken log2 fold change” value was -0.0276.

For RRIRLRPPRLPRPRPRPYTTPRP, the “shrunken log2 fold change” value was -0.488.

With RRIRIRPPRLPRPRPRPRQWPRP the “shrunken log2 fold change” value was 0.159.

In the case of RRIRWRPPRLPRPRPRPESMPRP, the “shrunken log2 fold change” value is reported as 0.636.

In the case of RRIRARPPRLPRPRPRPQIVPRP, the “shrunken log2 fold change” value is reported as -0.0292.

In the case of RRIRRRPPRLPRPRPRPTWMPRP, the “shrunken log2 fold change” value is reported as 0.174.

For RRIRSRPPRLPRPRPRPQRLPRP, the “shrunken log2 fold change” value was -0.187.

In the case of RRIRPRPPRLPRPRPRPYSFPRP, the “shrunken log2 fold change” value is reported as -0.796.

RRIRGRPPRLPRPRPRPEMPPRP was tested, and the “shrunken log2 fold change” value was 1.48.

In the case of RRIRQRPPRLPRPRPRPHYEPRP, the “shrunken log2 fold change” value is reported as -0.167.

With RRIRPRPPRLPRPRPRPRECPRP the “shrunken log2 fold change” value was 0.378.

In the case of RRIRQRPPRLPRPRPRPVCWPRP, the “shrunken log2 fold change” value is reported as 0.279.

In the case of RRIRPRPPRLPRPRPRPINKPRP, the “shrunken log2 fold change” value is reported as -0.641.

In the case of RRIRARPPRLPRPRPRPNCMPRP, the “shrunken log2 fold change” value is reported as -0.421.

For RRIRMRPPRLPRPRPRPSPVPRP, the “shrunken log2 fold change” value was 0.384.

For RRIRLRPPRLPRPRPRPHARPRP, the “shrunken log2 fold change” value was 0.416.

For RRIRMRPPRLPRPRPRPVVAPRP, the “shrunken log2 fold change” value was 0.533.

For RRIRSRPPRLPRPRPRPNQYPRP, the “shrunken log2 fold change” value was 0.2.

RRIRTRPPRLPRPRPRPQQFPRP was tested, and the “shrunken log2 fold change” value was -0.0175.

For RRIRCRPPRLPRPRPRPNNIPRP, the “shrunken log2 fold change” value was -0.843.

In the case of RRIRKRPPRLPRPRPRPWIPPRP, the “shrunken log2 fold change” value is reported as 0.0372.

For RRIRSRPPRLPRPRPRPCKAPRP, the “shrunken log2 fold change” value was 0.00989.

For RRIRPRPPRLPRPRPRPVCIPRP, the “shrunken log2 fold change” value was -0.122.

With RRIRPRPPRLPRPRPRPFRQPRP the “shrunken log2 fold change” value was -0.00634.

With RRIRWRPPRLPRPRPRPKFEPRP the “shrunken log2 fold change” value was 0.2.

In the case of RRIRVRPPRLPRPRPRPLNNPRP, the “shrunken log2 fold change” value is reported as -0.733.

In the case of RRIRERPPRLPRPRPRPMRHPRP, the “shrunken log2 fold change” value is reported as 0.0434.

RRIRFRPPRLPRPRPRPFKYPRP was tested, and the “shrunken log2 fold change” value was -1.26.

With RRIRSRPPRLPRPRPRPWPVPRP the “shrunken log2 fold change” value was 0.12.

In the case of RRIRCRPPRLPRPRPRPTEYPRP, the “shrunken log2 fold change” value is reported as -0.564.

For RRIRCRPPRLPRPRPRPGCGPRP, the “shrunken log2 fold change” value was 0.545.

For RRIRHRPPRLPRPRPRPERVPRP, the “shrunken log2 fold change” value was 0.228.

In the case of RRIRGRPPRLPRPRPRPYVYPRP, the “shrunken log2 fold change” value is reported as -0.0911.

RRIRQRPPRLPRPRPRPNKSPRP was tested, and the “shrunken log2 fold change” value was -0.202.

For RRIRNRPPRLPRPRPRPYVIPRP, the “shrunken log2 fold change” value was -0.177.

For RRIRSRPPRLPRPRPRPEVAPRP, the “shrunken log2 fold change” value was 0.102.

In the case of RRIRERPPRLPRPRPRPYLVPRP, the “shrunken log2 fold change” value is reported as -0.529.

In the case of RRIRYRPPRLPRPRPRPTNIPRP, the “shrunken log2 fold change” value is reported as -0.841.

With RRIRERPPRLPRPRPRPQANPRP the “shrunken log2 fold change” value was -0.0396.

RRIRDRPPRLPRPRPRPMQSPRP was tested, and the “shrunken log2 fold change” value was 3.94.

RRIRARPPRLPRPRPRPEWTPRP was tested, and the “shrunken log2 fold change” value was 0.591.

RRIRWRPPRLPRPRPRPYFWPRP was tested, and the “shrunken log2 fold change” value was -0.222.

With RRIRMRPPRLPRPRPRPLRMPRP the “shrunken log2 fold change” value was 1.88.

With RRIRPRPPRLPRPRPRPSHHPRP the “shrunken log2 fold change” value was -0.529.

RRIRHRPPRLPRPRPRPNWRPRP was tested, and the “shrunken log2 fold change” value was 0.0926.

RRIRKRPPRLPRPRPRPQAYPRP was tested, and the “shrunken log2 fold change” value was -0.216.

For RRIRGRPPRLPRPRPRPIRTPRP, the “shrunken log2 fold change” value was 0.21.

RRIRMRPPRLPRPRPRPEIRPRP was tested, and the “shrunken log2 fold change” value was -0.0241.

For RRIRMRPPRLPRPRPRPVDWPRP, the “shrunken log2 fold change” value was 1.21.

With RRIRHRPPRLPRPRPRPTTYPRP the “shrunken log2 fold change” value was -0.9.

For RRIRMRPPRLPRPRPRPNYQPRP, the “shrunken log2 fold change” value was -0.23.

In the case of RRIRVRPPRLPRPRPRPYYFPRP, the “shrunken log2 fold change” value is reported as -0.777.

RRIRARPPRLPRPRPRPSTGPRP was tested, and the “shrunken log2 fold change” value was -0.131.

In the case of RRIRRRPPRLPRPRPRPFIAPRP, the “shrunken log2 fold change” value is reported as -0.253.

In the case of RRIRHRPPRLPRPRPRPAFCPRP, the “shrunken log2 fold change” value is reported as 0.0444.

For RRIRERPPRLPRPRPRPWNFPRP, the “shrunken log2 fold change” value was -0.0838.

For RRIRQRPPRLPRPRPRPWVCPRP, the “shrunken log2 fold change” value was -0.208.

In the case of RRIRNRPPRLPRPRPRPHPRPRP, the “shrunken log2 fold change” value is reported as 0.0824.

For RRIRYRPPRLPRPRPRPFLDPRP, the “shrunken log2 fold change” value was -0.00748.

For RRIRERPPRLPRPRPRPRMEPRP, the “shrunken log2 fold change” value was -0.00684.

For RRIRWRPPRLPRPRPRPEPHPRP, the “shrunken log2 fold change” value was 0.65.

With RRIRMRPPRLPRPRPRPFNCPRP the “shrunken log2 fold change” value was -0.643.

RRIRARPPRLPRPRPRPKQWPRP was tested, and the “shrunken log2 fold change” value was 0.587.

For RRIRDRPPRLPRPRPRPRQRPRP, the “shrunken log2 fold change” value was 0.708.

For RRIRRRPPRLPRPRPRPLRWPRP, the “shrunken log2 fold change” value was 0.732.

RRIRGRPPRLPRPRPRPMIMPRP was tested, and the “shrunken log2 fold change” value was -0.0509.

RRIRLRPPRLPRPRPRPEPTPRP was tested, and the “shrunken log2 fold change” value was -0.00556.

For RRIRPRPPRLPRPRPRPGQKPRP, the “shrunken log2 fold change” value was -0.00227.

With RRIRKRPPRLPRPRPRPYCYPRP the “shrunken log2 fold change” value was -0.182.

RRIRNRPPRLPRPRPRPNTAPRP was tested, and the “shrunken log2 fold change” value was 0.0213.

With RRIRRRPPRLPRPRPRPYQDPRP the “shrunken log2 fold change” value was 0.00143.

RRIRARPPRLPRPRPRPTNKPRP was tested, and the “shrunken log2 fold change” value was -0.0139.

RRIRERPPRLPRPRPRPHRCPRP was tested, and the “shrunken log2 fold change” value was -0.0136.

For RRIRMRPPRLPRPRPRPQNKPRP, the “shrunken log2 fold change” value was -0.176.

With RRIRFRPPRLPRPRPRPGKKPRP the “shrunken log2 fold change” value was 0.0937.

In the case of RRIRHRPPRLPRPRPRPYFCPRP, the “shrunken log2 fold change” value is reported as -0.444.

In the case of RRIRDRPPRLPRPRPRPTNEPRP, the “shrunken log2 fold change” value is reported as 0.265.

For RRIRHRPPRLPRPRPRPCHLPRP, the “shrunken log2 fold change” value was -0.113.

RRIRDRPPRLPRPRPRPINHPRP was tested, and the “shrunken log2 fold change” value was -0.229.

RRIRSRPPRLPRPRPRPKWAPRP was tested, and the “shrunken log2 fold change” value was -0.117.

RRIRFRPPRLPRPRPRPGHYPRP was tested, and the “shrunken log2 fold change” value was -0.205.
